US20200129630A1, “METHODS FOR TREATING CANCER” (BicycleRD Limited, priority 2018, published 2020)
Numbered stars: 1 amine (or outer) side, 2 acyl side, 3 side chain; on linkers, the order of the positions; unused ones are H or OH. Bridge positions count the residues as written; N and C are the ends. Square brackets hold non-standard residues; d marks the D form. Peptide text beside a SMILES is read from it. * marks the point of attachment. X1 = COc1cc2cc(c1Cl)N(C)C(=O)C[C@H](OC(=O)[C@H](C)N(C)C(=O)CCSSC(C)CCC(=O)*)[C@]1(C)O[C@H]1[C@H](C)[C@@H]1C[C@@](O)(NC(=O)O1)[C@H](OC)/C=C/C=C(\C)C2; 1Nal = N[C@@H](Cc1cccc2ccccc12)C(=O)O; TBMB = c1c(C[*:1])cc(C[*:3])cc1C[*:2]; Tle = CC(C)(C)[C@H](N)C(=O)O; βAla = NCCC(=O)O; Sar = CNCC(=O)O

Key:
[1] = ECG, respiratory plethysmography and blood pressure (GLP safety pharmacology); type: in vivo; settings: monkeys 0.2, 0.5, 1 and 1.5 mg/kg twice weekly
Method: As part of the Good Laboratory Practice (GLP)-compliant toxicity studies, a core battery of safety pharmacology tests were performed. […] Electrocardiogram (ECG) and respiratory plethysmography measurements were taken in monkeys dosed at 0.2, 0.5, 1 and 1.5 mg/kg (2.4, 6, 12 and 18 mg/m^2 respectively) twice weekly on Day 4, Day 22 (following 2nd and 7th dose) and in the recovery period (for animals dosed with 0, 6 and 12 mg/m^2 twice weekly). Blood pressure (BP) measurements were also evaluated in the same monkeys on Day 1 and Day 25 and in the recovery period. […] It is therefore concluded that BT1718 has no cardiac, respiratory or behavioral liability at the doses and schedule tested in the GLP toxicity studies.

[2] = Distribution into blood cells; type: in vitro ADME; settings: comparable across human and all preclinical species tested
[3] = Non-GLP toxicity studies, rat; type: in vivo
Method: (§1) In a GLP-compliant study in Cynomolgus monkeys, the highest non-severely toxic dose (HNSTD) of BT1718 was established to be 18 mg/m^2 administered twice weekly, equivalent to a human dose of 0.48 mg/kg. In a GLP-compliant study in the rat, the MTD was not reached with the highest administered dose 6 mg/m^2 twice weekly. At this dose level, there was kidney toxicity (with no effect on clinical condition) and also testicular toxicity. After 28 days off-dose, there was evidence of partial recovery of kidney-related findings, but no recovery of testicular effects at this dose level. […] Therefore, the MTD for rat for twice weekly dosing was considered to be between 1 and 1.5 mg/kg.

SNU-16 = experiment: In vitro cytotoxicity (CellTiter-Glo) SNU-16; type: cell-based; settings: SNU-16, Gastric
Excerpt: (§2) Table 1 and Table 2 Notes: in general regression and stable disease correlated with the in vitro cytotoxicity and MT1-MMP expression. Female BALB/c mice n=3/group animals dosed twice per week except EBC-1 three per week. Tumor growth inhibition (TGI) (%)=[1−(Ti−T0)/(Vi−V0)]×100; Ti is the average tumor volume of a treatment group on a given day, TO is the average tumor volume of the treatment group on the day of treatment start, Vi is the average tumor volume of vehicle control group on the same day with Ti, and V0 is the average tumor volume of vehicle group on the day of treatment start. A one-way ANOVA was performed to compare tumor volume among groups, and when a significant F-statistics (a ratio of treatment variance to the error variance) was obtained, comparisons between groups were carried out with Games-Howell test. All data were analyzed using GraphPad Prism.* p<0.05, ** p<0.01, *** p<0.001. In vitro cytotoxicity was measured by CellTiter-Glo®, MT1-MMP membrane H score from immunohistochemistry staining, NM not measured. Tumor size on Day 1 of dosing.

[4] = Preclinical PK and toxicokinetics, summary across studies; set-up: species or system mice and rats; settings: mouse and rat, in vivo, intravenous, read-out: half-life estimate
Excerpt: BT1718 has low molecular weight (3.5 kDA) in comparison to other conjugated toxin approaches, which enables rapid penetration of tumor tissue. […] Hypothesized advantages over ADCs therefore include reduced systemic exposure of normal tissues to circulating BT1718, the ability to manage toxicity during recovery periods, as well as the improved tumor penetrance. Other potential advantages include a fixed peptide:conjugate ratio of 1:1 (c.f. ADCs where variable conjugation results in mixed populations) and with more scalable manufacturing as a small molecule (c.f. biologics such as ADCs).

[5] = Stability in plasma in vitro, monkey; type: in vitro ADME; settings: 37° C.
Method: (§3) The stability of BT1718 was assessed in plasma and whole blood from humans, monkey, dog, mouse and rat. […] The mechanism for the difference in stability of the BT1718 peptide in whole blood between the different species is unknown.

[6] = Stability in whole blood in vitro, mouse; type: in vitro ADME; settings: 37° C.
Method: as §3

NCI-H292 = experiment: In vitro cytotoxicity (CellTiter-Glo) NCI-H292; type: cell-based; settings: NCI-H292, NSCLC
Excerpt: as §2

[7] = Sprague Dawley rat PK study; type: in vivo; settings: plasma, 15 mg/m2, male, 15 mg/m^2 IV
[8] = Stability in whole blood in vitro, dog; type: in vitro ADME; settings: 37° C.
Method: as §3

[9] = Non-GLP toxicity studies, monkey; type: in vivo, monkeys
Excerpt: These include in vitro tissue microarray in human, rat and monkey tissues and in vitro and in vivo assessment of immunogenicity. In vivo assessments include single dose toxicity in mice and rats, multiple dose range finding studies in mice, rats, dogs and monkeys (non-GLP) and GLP-compliant multiple dose studies in rats and monkeys consisting of 28-day on study phase with a 28-day recovery period.

MDA-MB-231 = experiment: In vitro cytotoxicity (CellTiter-Glo) MDA-MB-231; type: cell-based; settings: MDA-MB-231, Breast
Excerpt: as §2

[10] = GLP-compliant 28-day repeat dose toxicity study, monkey; type: in vivo, Cynomolgus monkeys
Method: as §1

EBC-1 xenograft = experiment: Dosing schedule experiment in EBC-1 xenograft mice; settings: 60 mg/m^2 once weekly
Method: Anti-tumor activity was compared when equivalent total weekly doses were administered either once, twice or three times weekly or once daily.

For `COc1cc2cc(c1Cl)N(C)C(=O)C[C@H](OC(=O)[C@H](C)N(C)C(=O)CCSSC(C)CCC(=O)NCCC(=O)N(C)CC(=O)N(C)CC(=O)N(C)CC(=O)N(C)CC(=O)N(C)CC(=O)N(C)CC(=O)N(C)CC(=O)N(C)CC(=O)N(C)CC(=O)N(C)CC(=O)N[C@@H](C)C(=O)N[C@H]1CSCc3cc4cc(c3)CSC[C@H](NC(=O)[C@@H](C)NC(=O)[C@H](Cc3cccc5ccccc35)NC(=O)[C@H](CCC(=O)O)NC(=O)[C@H](CC(N)=O)NC(=O)[C@@H](C)NC1=O)C(=O)N[C@@H](CCC(=O)O)C(=O)N[C@@H](CC(=O)O)C(=O)N[C@@H](Cc1ccccc1)C(=O)N[C@@H](Cc1ccc(O)cc1)C(=O)N[C@@H](CC(=O)O)C(=O)N[C@@H](C(C)(C)C)C(=O)N[C@H](C(N)=O)CSC4)[C@]1(C)O[C@H]1[C@H](C)[C@@H]1C[C@@](O)(NC(=O)O1)[C@H](OC)/C=C/C=C(\C)C2` (some centres unmarked) [BT1718] ({X1-βAla}-[Sar][Sar][Sar][Sar][Sar][Sar][Sar][Sar][Sar][Sar]AC[dA]NE[1Nal][dA]CEDFYD[Tle]C-NH2; linker 12-18-25 via TBMB (inferred)), the “ECG, respiratory plethysmography, blood pressure findings” value [1] was “no BT1718 related findings”, the “distribution into blood cells” value [2] was “limited distribution into blood cells” and the tolerability ([3]; non-GLP rat, 9 mg/m^2 twice weekly) was “not well tolerated”. For the same compound, the GI findings ([3]; rat 5.03 mg/kg (30.2 mg/m^2) twice) was “Single cell necrosis of the ileum”, the bladder findings ([3]; rat, single administration of 40 mg/m^2) was “Bladder epithelial degeneration” and the peripheral haematology ([3]; rats 1.5 mg/kg, 9 mg/m^2 twice weekly) was “significant decreases in WBCs”. The hepatic findings ([3]; rats 3.35 mg/kg, 20.1 mg/m^2 twice weekly) was “Elevated liver enzymes”, the renal findings ([3]; rats >1 mg/kg, 6 mg/m^2 twice weekly) was “Moderate renal tubule degeneration and epithelial mitosis” and the IC50 (SNU-16) was 19.5 nM. It also gave a half-life [4] of 15 to 30 min, a half-life [5] of over 300 min and a half-life [6] of over 1440 min. The IC50 (NCI-H292) was 11.6 nM, the AUC [7] was 1.5 ± 0.2 µM·h and the clearance [7] was 9.4 ± 1.1 mL/min/kg. It also gave a half-life [7] of 33.6 ± 6.6 min, a Cmax ([7]; read-out: C0/Cmax) of 4.2 ± 1.1 µM and a Vd ([7]; read-out: Vdss) of 0.29 ± 0.03 L/kg. For the same compound, the half-life [8] was over 1440 min, the peripheral haematology ([9]; monkeys 2 mg/kg, 24 mg/m^2 once weekly) was “significant decreases in WBCs” and the GI findings ([9]; monkeys, single 3 mg/kg (36 mg/m^2) one week post 1.5 mg/kg dose) was “mild single cell necrosis of the glandular epithelial cells in the caecum”. The IC50 (MDA-MB-231) was 39.8 nM, the HNSTD ([10]; 28 day-repeat dose GLP monkey study, twice weekly) was 1.5 mg/kg and the “highest non-severely toxic dose (HNSTD)” value ([10]; Cynomolgus monkeys, GLP, twice weekly) was 18 mg/m^2. The GI-related findings ([10]; GLP monkey) was “No GI-related findings”, the bladder changes ([10]; GLP monkey) was “No bladder changes” and the liver toxicity ([10]; GLP monkey up to 1.5 mg/kg, 18 mg/m^2 twice weekly) was “No liver toxicity”. The “local toxicity at or around injection site” value ([10]; GLP monkey, 0.5 mg/kg (6 mg/m^2) twice weekly and above) was “black colouration of the skin”, the renal changes ([10]; GLP monkey, highest dose tested 1.5 mg/kg (18 mg/m^2)) was “No renal changes” and the “onset dose of minimal axonal degeneration” value ([10]; GLP monkey, twice weekly) was 1 mg/kg. The “HNSTD, equivalent human dose” value ([10]; from 18 mg/m^2 twice weekly in monkeys) was 0.48 mg/kg, the “anti-drug antibodies (ADAs) in serum” value ([10]; monkey 28-day GLP study) was “negative” and the reproductive organ findings ([10]; monkey studies) was “No changes in reproduction organs”. For the same compound, the increase in platelets ([10]; monkeys 1 mg/kg (12 mg/m^2) twice weekly or above) was 1.4-2.5 ×, the lymphoid findings ([10]; monkeys 1 mg/kg or 1.5 mg/kg twice weekly) was “Reversible thymus atrophy and decreased germinal centres in lymph nodes” and the “white blood cell (WBC) reduction, maximum” value ([10]; monkeys, onset 0.5 mg/kg (6 mg/m^2) twice weekly, reversible) was 0.11 ×. For the same compound, the “reticulocyte reduction, maximum” value ([10]; monkeys, onset 1 mg/kg (12 mg/m^2) twice weekly, reversible) was 0.2 × and the weight loss (EBC-1 xenograft) was over 10%.
